Data taken from patent US20140314793A1 (BIOINVENT INTERNATIONAL, published 2014).

Assays:
[1] = biological target: T1, intercellular cell adhesion molecule-1 (ICAM-1) on the surface of human cells (human, UniProt P05362 28-532); assay: FACS of bone marrow cells, patient 15
T1 construct: whole, on cells; Endogenous antigen; also called CD54

[2] = biological target: T1, intercellular cell adhesion molecule-1 …; assay: FACS of bone marrow cells, patient 13
[3] = biological target: T1, intercellular cell adhesion molecule-1 …; assay: flow cytometry on patient bone marrow cells
[4] = biological target: T1, intercellular cell adhesion molecule-1 …; assay: flow cytometry on ARH-77 cells, % of maximal cell ICAM-1 binding
[5] = biological target: T1, intercellular cell adhesion molecule-1 …; assay: FACS of bone marrow cells, patient 14
[6] = biological target: T1, intercellular cell adhesion molecule-1 …; assay: FACS of bone marrow cells, patient 22
[7] = biological target: T1, intercellular cell adhesion molecule-1 …; assay: FACS of bone marrow cells, patient 1
[8] = biological target: T1, intercellular cell adhesion molecule-1 …; assay: FACS of bone marrow cells, patient 17
recombinant ICAM-1 = biological target: T2, recombinant ICAM-1 (UniProt P05362 28-480); assay: ELISA on recombinant ICAM-1, luminescence
T2 construct: also called recombinant ICAM-1 protein

[9] = biological target: T1, intercellular cell adhesion molecule-1 …; assay: 125I-IgG saturation binding, Rosenthal-Scatchard plot (legend of FIG. 5; Ramos cells in the panels, 'Raji cells' at the end of the sentence); legend of FIG. 5; Ramos cells (right panels, IgG B11), though the sentence ends '(Raji cells)'
Protocol: (§1) Analysis was performed in triplicates.
(§2) Antibody affinity constants (Kd values) and epitope numbers per cell were determined from Scatchard plot analysis according to Rosenthal et al. (Anal. Biochem. (1967) 20:525-532); Bylund and Yamamura (Methods in Neurotransmitter Analysed, New York: Raven Press Ltd., 1990); and Marquardt (J. Soc. Indust. Appl. Math. (1963) 11:431-441), as previously described (Brix et al., J. Clin. Invest. (1998) 102:283-293).
(§3) The specific binding of [¹²⁵I]IgG to the cell surface was calculated by subtracting non-specific binding (binding in the presence of excess unlabelled IgG) from the total binding.

[10] = biological target: T1, intercellular cell adhesion molecule-1 …; assay: FACS of bone marrow cells, patient 10
[11] = biological target: T1, intercellular cell adhesion molecule-1 …; assay: FACS of bone marrow cells, patient 16
[12] = biological target: T1, intercellular cell adhesion molecule-1 …; assay: FACS of bone marrow cells, patient 2
[13] = biological target: T1, intercellular cell adhesion molecule-1 …; assay: FACS of bone marrow cells, patient 9
[14] = biological target: T1, intercellular cell adhesion molecule-1 …; assay: FACS of tumor cells incubated with serially diluted AF647-BI-505 after FcγR pre-block with human IgG (receptor occupancy)
Protocol: The experiment was repeated three times and mean MFI values were calculated and plotted as a function of antibody concentration. […] The curve was fitted using a five-parameter log-log curve and XLfit software. […] Cells received treatment in triplicate and the experiment was repeated three to five times. […] In vitro PCD and in vivo anti-tumor activity were plotted as a function of receptor occupancy using curve fitting equations and data generated and described above.

[15] = biological target: T1, intercellular cell adhesion molecule-1 …; assay: FACS of bone marrow cells, patient 12
[16] = biological target: T1, intercellular cell adhesion molecule-1 …; assay: FACS of bone marrow cells, patient 19:2
[17] = biological target: T1, intercellular cell adhesion molecule-1 …; assay: FACS of bone marrow cells, patient 4
[18] = biological target: T1, intercellular cell adhesion molecule-1 …; assay: FACS of bone marrow cells, patient 5
[19] = biological target: T1, intercellular cell adhesion molecule-1 …; assay: flow cytometry, AF647 Zenon-labelled IgG
[20] = biological target: T1, intercellular cell adhesion molecule-1 …; assay: 125I-IgG saturation binding on Ramos cells at 4° C., Rosenthal-Scatchard plot
Protocol: (§4) Specific binding was determined by subtracting binding in the presence of unlabeled competing protein from total binding.
as §2, §3

[21] = biological target: T1, intercellular cell adhesion molecule-1 …; assay: FACS of bone marrow cells, patient 19:1
[22] = biological target: T1, intercellular cell adhesion molecule-1 …; assay: FACS of bone marrow cells, patient 19:3
[23] = biological target: T1, intercellular cell adhesion molecule-1 …; assay: FACS of bone marrow cells, patient 6
[24] = biological target: T1, intercellular cell adhesion molecule-1 …; assay: FACS of bone marrow cells, patient 7
[25] = biological target: T1, intercellular cell adhesion molecule-1 …; assay: FACS of bone marrow cells, patient 21
[26] = biological target: T1, intercellular cell adhesion molecule-1 …; assay: FACS of bone marrow cells, patient 8
[27] = biological target: T1, intercellular cell adhesion molecule-1 …; assay: saturation binding of radioiodinated IgG to Ramos cells, unlabelled IgG subtracted
Protocol: as §4, §1, §3

[28] = biological target: T1, intercellular cell adhesion molecule-1 …; assay: FACS of bone marrow cells, patient 18
[29] = biological target: T1, intercellular cell adhesion molecule-1 …; assay: FACS of bone marrow cells, patient 20
ICAM-3 (recombinant) = biological target: T3, ICAM-3 (recombinant) (UniProt P32942 30-485, limits assumed); assay: dose-dependent binding to recombinant protein (FIG. 12C b)
T3 sequence (looked up): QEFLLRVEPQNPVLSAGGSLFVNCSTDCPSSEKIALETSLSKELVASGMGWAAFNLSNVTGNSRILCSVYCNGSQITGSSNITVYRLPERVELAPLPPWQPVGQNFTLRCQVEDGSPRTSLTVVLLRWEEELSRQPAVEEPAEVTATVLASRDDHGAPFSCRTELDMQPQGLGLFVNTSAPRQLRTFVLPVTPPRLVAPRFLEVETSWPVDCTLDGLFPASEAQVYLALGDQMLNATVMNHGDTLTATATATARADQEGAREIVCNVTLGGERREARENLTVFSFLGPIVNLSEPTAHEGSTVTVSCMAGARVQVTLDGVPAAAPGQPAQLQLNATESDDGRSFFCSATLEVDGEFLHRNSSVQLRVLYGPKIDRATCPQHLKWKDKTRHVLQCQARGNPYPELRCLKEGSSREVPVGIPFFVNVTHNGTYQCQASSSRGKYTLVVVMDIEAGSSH

ICAM-2 (recombinant) = biological target: T4, ICAM-2 (recombinant) (UniProt P13598 25-223, limits assumed); assay: as above
T4 sequence (looked up): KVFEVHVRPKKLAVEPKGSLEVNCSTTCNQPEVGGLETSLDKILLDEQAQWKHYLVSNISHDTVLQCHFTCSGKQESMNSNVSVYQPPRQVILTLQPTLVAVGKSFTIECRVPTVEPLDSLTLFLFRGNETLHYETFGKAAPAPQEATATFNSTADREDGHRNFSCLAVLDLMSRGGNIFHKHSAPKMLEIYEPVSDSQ

[30] = biological target: T1, intercellular cell adhesion molecule-1 …; assay: flow cytometry on myeloma cells of one patient, relapse versus diagnosis
[31] = biological target: T1, intercellular cell adhesion molecule-1 …; assay: FACS of bone marrow cells, patient 11

T1 sequence (P05362 28-532): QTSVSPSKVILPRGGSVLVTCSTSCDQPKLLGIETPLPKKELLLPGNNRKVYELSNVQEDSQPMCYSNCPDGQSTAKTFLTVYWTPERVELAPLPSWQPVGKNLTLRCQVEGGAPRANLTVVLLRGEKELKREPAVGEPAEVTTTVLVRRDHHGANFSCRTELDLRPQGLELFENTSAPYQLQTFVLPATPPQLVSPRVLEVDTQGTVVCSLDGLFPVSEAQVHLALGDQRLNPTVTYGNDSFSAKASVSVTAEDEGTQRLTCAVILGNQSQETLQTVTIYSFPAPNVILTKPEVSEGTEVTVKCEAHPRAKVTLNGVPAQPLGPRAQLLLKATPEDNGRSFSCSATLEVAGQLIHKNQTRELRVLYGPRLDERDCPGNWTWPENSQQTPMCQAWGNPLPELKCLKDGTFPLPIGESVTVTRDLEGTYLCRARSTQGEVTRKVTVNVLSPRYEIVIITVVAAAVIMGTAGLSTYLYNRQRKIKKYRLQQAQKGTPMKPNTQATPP
T2 sequence (P05362 28-480 limits assumed): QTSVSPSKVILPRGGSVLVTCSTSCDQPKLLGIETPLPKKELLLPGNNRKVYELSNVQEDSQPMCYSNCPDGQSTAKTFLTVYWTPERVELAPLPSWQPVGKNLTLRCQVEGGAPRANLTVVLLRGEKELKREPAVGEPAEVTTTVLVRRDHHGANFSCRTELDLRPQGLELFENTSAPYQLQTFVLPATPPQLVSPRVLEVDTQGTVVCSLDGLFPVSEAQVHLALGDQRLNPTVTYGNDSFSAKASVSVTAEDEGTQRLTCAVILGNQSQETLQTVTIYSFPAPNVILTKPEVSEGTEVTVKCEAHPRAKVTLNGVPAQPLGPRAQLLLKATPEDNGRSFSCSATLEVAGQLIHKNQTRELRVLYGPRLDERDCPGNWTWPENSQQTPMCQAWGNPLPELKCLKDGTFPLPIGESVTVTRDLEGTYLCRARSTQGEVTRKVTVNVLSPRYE

B1: B11 IgG1 (BI-505), fully human anti-ICAM-1 antibody (antibody, V domains shown)
VH: EVQLLESGGGLVQPGGSLRLSCAASGFTFSNAWMSWVRQAPGKGLEWVAFIWYDGSNKYYADSVKGRFTISRDNSKNTLYLQMNSLRAEDTAVYYCARYSGWYFDYWGQGTLVTVSS
VL: QSVLTQPPSASGTPGQRVTISCTGSSSNIGAGYDVHWYQQLPGTAPKLLIYDNNNRPSGVPDRFSGSKSGTSASLAISGLRSEDEADYYCQSYDSSLSAWLFGGGTKLTVL
notes: That 6 is VH and 8 is VL follows only from the order 'VH and VL'; also called IgG B11
B1 was tested, and the “fold increase of BI-505 epitope on MM cells compared to normal B cells” value (shortened to “fold increase of BI-505 epitope”) [1] was 27 fold, the “fold increase of BI-505 epitope” value [2] was 47 fold and the “fold expression of the epitope, myeloma cells versus normal B cells” value [3] was 10 fold. The “EC50 (read off the curve)” value [4] was about 0.05 µg/mL, the “fold increase of BI-505 epitope” value [5] was 5 fold and the “fold increase of BI-505 epitope” value [6] was 6 fold. For the same binder, the “fold increase of BI-505 epitope” value [7] was 55 fold, the “fold increase of BI-505 epitope” value [8] was 11 fold and the “EC50 (read off the curve)” value (recombinant ICAM-1) was about 0.3 nM. For the same binder, the Kd [9] was about 0.3 nM, the “fold increase of BI-505 epitope” value [10] was 4 fold and the “fold increase of BI-505 epitope” value [11] was 3 fold. For the same binder, the “fold increase of BI-505 epitope” value [12] was 8 fold, the “fold increase of BI-505 epitope” value [13] was 18 fold and the “EC50 (read off the curve)” value [14] was about 0.4 µg/mL. For the same binder, the “fold increase of BI-505 epitope” value [15] was 16 fold, the “fold increase of BI-505 epitope” value [16] was 6 fold and the “fold increase of BI-505 epitope” value [17] was 9 fold. For the same binder, the “fold increase of BI-505 epitope” value [18] was 9 fold, the “fold binding, Ramos versus NK cells” value [19] was 23 fold and the “fold binding, Ramos versus monocyte cells” value [19] was 3.7 fold. For the same binder, the “fold binding, Ramos versus peripheral blood B lymphocytes” value [19] was 8.3 fold, the Kd [20] was about 0.2 nM and the “fold increase of BI-505 epitope” value [21] was 10 fold. The “fold increase of BI-505 epitope” value [22] was 4 fold, the “fold increase of BI-505 epitope” value [23] was 9 fold and the “fold increase of BI-505 epitope” value [24] was 45 fold. The “fold increase of BI-505 epitope” value [25] was 4 fold, the “fold increase of BI-505 epitope” value [26] was 12 fold and the “EC50 (read off the curve)” value [27] was about 0.3 nM. The “fold increase of BI-505 epitope” value [28] was 8 fold, the “fold increase of BI-505 epitope” value [29] was 27 fold and the binding result (ICAM-3 (recombinant)) was “no binding”. For the same binder, the binding result (ICAM-2 (recombinant)) was “no binding”, the “fold expression of the epitope after first relapse” value [30] was 2 fold and the “fold increase of BI-505 epitope” value [31] was 10 fold.

B2: BI-505 IgG1 N297Q (antibody, V domains shown)
VH: EVQLLESGGGLVQPGGSLRLSCAASGFTFSNAWMSWVRQAPGKGLEWVAFIWYDGSNKYYADSVKGRFTISRDNSKNTLYLQMNSLRAEDTAVYYCARYSGWYFDYWGQGTLVTVSS
VL: QSVLTQPPSASGTPGQRVTISCTGSSSNIGAGYDVHWYQQLPGTAPKLLIYDNNNRPSGVPDRFSGSKSGTSASLAISGLRSEDEADYYCQSYDSSLSAWLFGGGTKLTVLG
notes: also called Fc-mut; BI-505N297Q
In the case of B2, the “EC50 (read off the curve)” value [4] is reported as about 0.05 µg/mL and the “EC50 (read off the curve)” value (recombinant ICAM-1) is reported as about 0.2 nM.

B3: BI-505 IgG4 (antibody, V domains shown)
VH: EVQLLESGGGLVQPGGSLRLSCAASGFTFSNAWMSWVRQAPGKGLEWVAFIWYDGSNKYYADSVKGRFTISRDNSKNTLYLQMNSLRAEDTAVYYCARYSGWYFDYWGQGTLVTVSS
VL: QSVLTQPPSASGTPGQRVTISCTGSSSNIGAGYDVHWYQQLPGTAPKLLIYDNNNRPSGVPDRFSGSKSGTSASLAISGLRSEDEADYYCQSYDSSLSAWLFGGGTKLTVLG
In the case of B3, the “EC50 (read off the curve)” value [4] is reported as about 0.05 µg/mL and the “EC50 (read off the curve)” value (recombinant ICAM-1) is reported as about 0.2 nM.
